First the molecules themselves.
B1: GpH7-A5/GpH7-B3 variant P271_15Y/GpL16-k0 (antibody, human IgG1, kappa)
heavy 1: not shown
heavy 2: not shown
light: DIVMTQSPLSLPVTPGEPASISCQASESLVHSNRNTYLHWYLQKPGQSPQLLIYKVSNRFSGVPDRFSGSGSGTDFTLKISRVEAEDVGVYYCSQNTHVPPTFGQGTKVEIERTVAAPSVFIFPPSDEQLKSGTASVVCLLNNFYPREAKVQWKVDNALQSGNSQESVTEQDSKDSTYSLSSTLTLSKADYEKHKVYACEVTHQGLSSPVTKSFNRGEC
notes: He Ab; copies: 1 + 1 + 2
B2: GpH7-A5/GpH7-B3 variant P331_07I/GpL16-k0 (antibody, human IgG1, kappa)
heavy 1: not shown
heavy 2: not shown
light: DIVMTQSPLSLPVTPGEPASISCQASESLVHSNRNTYLHWYLQKPGQSPQLLIYKVSNRFSGVPDRFSGSGSGTDFTLKISRVEAEDVGVYYCSQNTHVPPTFGQGTKVEIERTVAAPSVFIFPPSDEQLKSGTASVVCLLNNFYPREAKVQWKVDNALQSGNSQESVTEQDSKDSTYSLSSTLTLSKADYEKHKVYACEVTHQGLSSPVTKSFNRGEC
notes: He Ab; copies: 1 + 1 + 2
B3: GpH7-A5/GpH7-B3 variant P331_02A/GpL16-k0 (antibody, human IgG1, kappa)
heavy 1: not shown
heavy 2: not shown
light: DIVMTQSPLSLPVTPGEPASISCQASESLVHSNRNTYLHWYLQKPGQSPQLLIYKVSNRFSGVPDRFSGSGSGTDFTLKISRVEAEDVGVYYCSQNTHVPPTFGQGTKVEIERTVAAPSVFIFPPSDEQLKSGTASVVCLLNNFYPREAKVQWKVDNALQSGNSQESVTEQDSKDSTYSLSSTLTLSKADYEKHKVYACEVTHQGLSSPVTKSFNRGEC
notes: He Ab; copies: 1 + 1 + 2
B4: GpH7-A5/GpH7-B3 variant P331_11K/GpL16-k0 (antibody, human IgG1, kappa)
heavy 1: not shown
heavy 2: not shown
light: DIVMTQSPLSLPVTPGEPASISCQASESLVHSNRNTYLHWYLQKPGQSPQLLIYKVSNRFSGVPDRFSGSGSGTDFTLKISRVEAEDVGVYYCSQNTHVPPTFGQGTKVEIERTVAAPSVFIFPPSDEQLKSGTASVVCLLNNFYPREAKVQWKVDNALQSGNSQESVTEQDSKDSTYSLSSTLTLSKADYEKHKVYACEVTHQGLSSPVTKSFNRGEC
notes: He Ab; copies: 1 + 1 + 2
B5: GpH7-A5/GpH7-B3 variant P331_04F/GpL16-k0 (antibody, human IgG1, kappa)
heavy 1: not shown
heavy 2: not shown
light: DIVMTQSPLSLPVTPGEPASISCQASESLVHSNRNTYLHWYLQKPGQSPQLLIYKVSNRFSGVPDRFSGSGSGTDFTLKISRVEAEDVGVYYCSQNTHVPPTFGQGTKVEIERTVAAPSVFIFPPSDEQLKSGTASVVCLLNNFYPREAKVQWKVDNALQSGNSQESVTEQDSKDSTYSLSSTLTLSKADYEKHKVYACEVTHQGLSSPVTKSFNRGEC
notes: He Ab; copies: 1 + 1 + 2
B6: GpH7-A5/GpH7-B3 variant P271_18N/GpL16-k0 (antibody, human IgG1, kappa)
heavy 1: not shown
heavy 2: not shown
light: DIVMTQSPLSLPVTPGEPASISCQASESLVHSNRNTYLHWYLQKPGQSPQLLIYKVSNRFSGVPDRFSGSGSGTDFTLKISRVEAEDVGVYYCSQNTHVPPTFGQGTKVEIERTVAAPSVFIFPPSDEQLKSGTASVVCLLNNFYPREAKVQWKVDNALQSGNSQESVTEQDSKDSTYSLSSTLTLSKADYEKHKVYACEVTHQGLSSPVTKSFNRGEC
notes: He Ab; copies: 1 + 1 + 2
B7: GpH7-A5/GpH7-B3 variant P329_09D/GpL16-k0 (antibody, human IgG1, kappa)
heavy 1: not shown
heavy 2: not shown
light: DIVMTQSPLSLPVTPGEPASISCQASESLVHSNRNTYLHWYLQKPGQSPQLLIYKVSNRFSGVPDRFSGSGSGTDFTLKISRVEAEDVGVYYCSQNTHVPPTFGQGTKVEIERTVAAPSVFIFPPSDEQLKSGTASVVCLLNNFYPREAKVQWKVDNALQSGNSQESVTEQDSKDSTYSLSSTLTLSKADYEKHKVYACEVTHQGLSSPVTKSFNRGEC
notes: He Ab; copies: 1 + 1 + 2
B8: GpH7-A5/GpH7-B3 variant P331_13S/GpL16-k0 (antibody, human IgG1, kappa)
heavy 1: not shown
heavy 2: not shown
light: DIVMTQSPLSLPVTPGEPASISCQASESLVHSNRNTYLHWYLQKPGQSPQLLIYKVSNRFSGVPDRFSGSGSGTDFTLKISRVEAEDVGVYYCSQNTHVPPTFGQGTKVEIERTVAAPSVFIFPPSDEQLKSGTASVVCLLNNFYPREAKVQWKVDNALQSGNSQESVTEQDSKDSTYSLSSTLTLSKADYEKHKVYACEVTHQGLSSPVTKSFNRGEC
notes: He Ab; copies: 1 + 1 + 2
B9: GpH7-A5/GpH7-B3 variant P331_15Y/GpL16-k0 (antibody, human IgG1, kappa)
heavy 1: not shown
heavy 2: not shown
light: DIVMTQSPLSLPVTPGEPASISCQASESLVHSNRNTYLHWYLQKPGQSPQLLIYKVSNRFSGVPDRFSGSGSGTDFTLKISRVEAEDVGVYYCSQNTHVPPTFGQGTKVEIERTVAAPSVFIFPPSDEQLKSGTASVVCLLNNFYPREAKVQWKVDNALQSGNSQESVTEQDSKDSTYSLSSTLTLSKADYEKHKVYACEVTHQGLSSPVTKSFNRGEC
notes: He Ab; copies: 1 + 1 + 2
B10: GpH7-A5/GpH7-B3 variant P331_16H/GpL16-k0 (antibody, human IgG1, kappa)
heavy 1: not shown
heavy 2: not shown
light: DIVMTQSPLSLPVTPGEPASISCQASESLVHSNRNTYLHWYLQKPGQSPQLLIYKVSNRFSGVPDRFSGSGSGTDFTLKISRVEAEDVGVYYCSQNTHVPPTFGQGTKVEIERTVAAPSVFIFPPSDEQLKSGTASVVCLLNNFYPREAKVQWKVDNALQSGNSQESVTEQDSKDSTYSLSSTLTLSKADYEKHKVYACEVTHQGLSSPVTKSFNRGEC
notes: He Ab; copies: 1 + 1 + 2
B11: GpH7-A5/GpH7-B3 variant P271_20W/GpL16-k0 (antibody, human IgG1, kappa)
heavy 1: not shown
heavy 2: not shown
light: DIVMTQSPLSLPVTPGEPASISCQASESLVHSNRNTYLHWYLQKPGQSPQLLIYKVSNRFSGVPDRFSGSGSGTDFTLKISRVEAEDVGVYYCSQNTHVPPTFGQGTKVEIERTVAAPSVFIFPPSDEQLKSGTASVVCLLNNFYPREAKVQWKVDNALQSGNSQESVTEQDSKDSTYSLSSTLTLSKADYEKHKVYACEVTHQGLSSPVTKSFNRGEC
notes: He Ab; copies: 1 + 1 + 2
B12: GpH7-A5/GpH7-B3 variant P329_02A/GpL16-k0 (antibody, human IgG1, kappa)
heavy 1: not shown
heavy 2: not shown
light: DIVMTQSPLSLPVTPGEPASISCQASESLVHSNRNTYLHWYLQKPGQSPQLLIYKVSNRFSGVPDRFSGSGSGTDFTLKISRVEAEDVGVYYCSQNTHVPPTFGQGTKVEIERTVAAPSVFIFPPSDEQLKSGTASVVCLLNNFYPREAKVQWKVDNALQSGNSQESVTEQDSKDSTYSLSSTLTLSKADYEKHKVYACEVTHQGLSSPVTKSFNRGEC
notes: He Ab; copies: 1 + 1 + 2
B13: GpH7-A5/GpH7-B3 variant P331_18N/GpL16-k0 (antibody, human IgG1, kappa)
heavy 1: not shown
heavy 2: not shown
light: DIVMTQSPLSLPVTPGEPASISCQASESLVHSNRNTYLHWYLQKPGQSPQLLIYKVSNRFSGVPDRFSGSGSGTDFTLKISRVEAEDVGVYYCSQNTHVPPTFGQGTKVEIERTVAAPSVFIFPPSDEQLKSGTASVVCLLNNFYPREAKVQWKVDNALQSGNSQESVTEQDSKDSTYSLSSTLTLSKADYEKHKVYACEVTHQGLSSPVTKSFNRGEC
notes: He Ab; copies: 1 + 1 + 2
B14: GpH7-A5/GpH7-B3 variant P271_16H/GpL16-k0 (antibody, human IgG1, kappa)
heavy 1: not shown
heavy 2: not shown
light: DIVMTQSPLSLPVTPGEPASISCQASESLVHSNRNTYLHWYLQKPGQSPQLLIYKVSNRFSGVPDRFSGSGSGTDFTLKISRVEAEDVGVYYCSQNTHVPPTFGQGTKVEIERTVAAPSVFIFPPSDEQLKSGTASVVCLLNNFYPREAKVQWKVDNALQSGNSQESVTEQDSKDSTYSLSSTLTLSKADYEKHKVYACEVTHQGLSSPVTKSFNRGEC
notes: He Ab; copies: 1 + 1 + 2
B15: GpH7-A5/GpH7-B3 variant P331_09D/GpL16-k0 (antibody, human IgG1, kappa)
heavy 1: not shown
heavy 2: not shown
light: DIVMTQSPLSLPVTPGEPASISCQASESLVHSNRNTYLHWYLQKPGQSPQLLIYKVSNRFSGVPDRFSGSGSGTDFTLKISRVEAEDVGVYYCSQNTHVPPTFGQGTKVEIERTVAAPSVFIFPPSDEQLKSGTASVVCLLNNFYPREAKVQWKVDNALQSGNSQESVTEQDSKDSTYSLSSTLTLSKADYEKHKVYACEVTHQGLSSPVTKSFNRGEC
notes: He Ab; copies: 1 + 1 + 2
B16: GpH7-A5/GpH7-B3 variant P331_14T/GpL16-k0 (antibody, human IgG1, kappa)
heavy 1: not shown
heavy 2: not shown
light: DIVMTQSPLSLPVTPGEPASISCQASESLVHSNRNTYLHWYLQKPGQSPQLLIYKVSNRFSGVPDRFSGSGSGTDFTLKISRVEAEDVGVYYCSQNTHVPPTFGQGTKVEIERTVAAPSVFIFPPSDEQLKSGTASVVCLLNNFYPREAKVQWKVDNALQSGNSQESVTEQDSKDSTYSLSSTLTLSKADYEKHKVYACEVTHQGLSSPVTKSFNRGEC
notes: He Ab; copies: 1 + 1 + 2
B17: GpH7-A5/GpH7-B3 variant P329_10E/GpL16-k0 (antibody, human IgG1, kappa)
heavy 1: not shown
heavy 2: not shown
light: DIVMTQSPLSLPVTPGEPASISCQASESLVHSNRNTYLHWYLQKPGQSPQLLIYKVSNRFSGVPDRFSGSGSGTDFTLKISRVEAEDVGVYYCSQNTHVPPTFGQGTKVEIERTVAAPSVFIFPPSDEQLKSGTASVVCLLNNFYPREAKVQWKVDNALQSGNSQESVTEQDSKDSTYSLSSTLTLSKADYEKHKVYACEVTHQGLSSPVTKSFNRGEC
notes: He Ab; copies: 1 + 1 + 2
B18: GpH7-A5/GpH7-B3 variant P331_03V/GpL16-k0 (antibody, human IgG1, kappa)
heavy 1: not shown
heavy 2: not shown
light: DIVMTQSPLSLPVTPGEPASISCQASESLVHSNRNTYLHWYLQKPGQSPQLLIYKVSNRFSGVPDRFSGSGSGTDFTLKISRVEAEDVGVYYCSQNTHVPPTFGQGTKVEIERTVAAPSVFIFPPSDEQLKSGTASVVCLLNNFYPREAKVQWKVDNALQSGNSQESVTEQDSKDSTYSLSSTLTLSKADYEKHKVYACEVTHQGLSSPVTKSFNRGEC
notes: He Ab; copies: 1 + 1 + 2
B19: GpH7-A5/GpH7-B3 variant P271_19Q/GpL16-k0 (antibody, human IgG1, kappa)
heavy 1: not shown
heavy 2: not shown
light: DIVMTQSPLSLPVTPGEPASISCQASESLVHSNRNTYLHWYLQKPGQSPQLLIYKVSNRFSGVPDRFSGSGSGTDFTLKISRVEAEDVGVYYCSQNTHVPPTFGQGTKVEIERTVAAPSVFIFPPSDEQLKSGTASVVCLLNNFYPREAKVQWKVDNALQSGNSQESVTEQDSKDSTYSLSSTLTLSKADYEKHKVYACEVTHQGLSSPVTKSFNRGEC
notes: He Ab; copies: 1 + 1 + 2
B20: GpH7-A5/GpH7-B3 variant P331_10E/GpL16-k0 (antibody, human IgG1, kappa)
heavy 1: not shown
heavy 2: not shown
light: DIVMTQSPLSLPVTPGEPASISCQASESLVHSNRNTYLHWYLQKPGQSPQLLIYKVSNRFSGVPDRFSGSGSGTDFTLKISRVEAEDVGVYYCSQNTHVPPTFGQGTKVEIERTVAAPSVFIFPPSDEQLKSGTASVVCLLNNFYPREAKVQWKVDNALQSGNSQESVTEQDSKDSTYSLSSTLTLSKADYEKHKVYACEVTHQGLSSPVTKSFNRGEC
notes: He Ab; copies: 1 + 1 + 2
B21: GpH7-A5/GpH7-B3 variant P331_06M/GpL16-k0 (antibody, human IgG1, kappa)
heavy 1: not shown
heavy 2: not shown
light: DIVMTQSPLSLPVTPGEPASISCQASESLVHSNRNTYLHWYLQKPGQSPQLLIYKVSNRFSGVPDRFSGSGSGTDFTLKISRVEAEDVGVYYCSQNTHVPPTFGQGTKVEIERTVAAPSVFIFPPSDEQLKSGTASVVCLLNNFYPREAKVQWKVDNALQSGNSQESVTEQDSKDSTYSLSSTLTLSKADYEKHKVYACEVTHQGLSSPVTKSFNRGEC
notes: He Ab; copies: 1 + 1 + 2
B22: GpH7-A5/GpH7-B3 variant P331_08L/GpL16-k0 (antibody, human IgG1, kappa)
heavy 1: not shown
heavy 2: not shown
light: DIVMTQSPLSLPVTPGEPASISCQASESLVHSNRNTYLHWYLQKPGQSPQLLIYKVSNRFSGVPDRFSGSGSGTDFTLKISRVEAEDVGVYYCSQNTHVPPTFGQGTKVEIERTVAAPSVFIFPPSDEQLKSGTASVVCLLNNFYPREAKVQWKVDNALQSGNSQESVTEQDSKDSTYSLSSTLTLSKADYEKHKVYACEVTHQGLSSPVTKSFNRGEC
notes: He Ab; copies: 1 + 1 + 2

The target of this test is T1, FcγRIIIa extracellular domain, C-terminal His tag (human, UniProt P08637 17-208).
T1 construct: extracellular domain; also called 3a
T1 sequence (P08637 other isoform, or with tags, fused parts or gaps): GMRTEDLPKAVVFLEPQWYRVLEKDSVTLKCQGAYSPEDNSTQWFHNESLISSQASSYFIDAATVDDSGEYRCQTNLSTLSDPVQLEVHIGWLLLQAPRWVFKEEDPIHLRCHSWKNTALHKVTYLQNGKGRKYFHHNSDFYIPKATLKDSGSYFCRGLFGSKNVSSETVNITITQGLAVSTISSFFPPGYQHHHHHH
Kind of test: SPR, binding activity relative to GpH7-A5/GpH7-B3/GpL16-k0 (=100).
B1: the “He/Con 3a” value was found to be 62.7%.
The value for B2 was 60.4%.
Next, B3: 82.5%; B4: 61.8%; B5: 70.7%.
Next, B6: 94%; B7: 52.5%; B8: 80.9%.
Regarding B9, the “He/Con 3a” value was determined as 74.9%.
The value for B10 was 73.4%.
Take B11: the “He/Con 3a” value turned out to be 77.8%.
The value for B12 was 55.2%.
The value for B13 was 67.1%; that for B14 was 70.3%; that for B15 was 71.6%.
Next, B16: 67.8%; B17: 52.7%; B18: 66.9%.
Turning to B19, the “He/Con 3a” value amounted to 84.6%.
Next, B20: 68.7%; B21: 68.4%.
The value for B22 was 66%.
